Assay: yeast display, Sf9 membrane polyspecificity reagent, FACS + sequencing; frameworks hold sequencing errors
Outline: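 Synthetic nanobody libraries on Saccharomyces cerevisiae BJ5465 were galactose-induced for 36–48 hours, stained 1 hour at 4 °C with 10% biotinylated, detergent-solubilized Sf9 membrane reagent and enriched on streptavidin microbeads. FACS then separated cells into low and high (top ~1%) gates by anti-HA (expression) and streptavidin (reagent binding) fluorescence. Genes were colony-PCR amplified, MiSeq 2 × 250 sequenced and CDR-length filtered. A clone's polyreactivity label is that of its gate of origin.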

Sequence	polyreactivity (PSR sort gate)
QVQLVESGGGLGQAGGSLRLSCAASGRIFVGYAMGWYRQAPGKERELVAAIDVGGGSTYYADSVKGRFTISRDNAKNTVYLQMNSLKPEDTAVYYCAADAFGWSSYWPYDYWGQGTQVTVSS	low polyreactivity
QVQLVESGGGLGQAGGSLRLSCAASGRIFYSYAMGWSRQAPGKESELVAAITESGGSTNYADSVKGRFTISRDNAKNTVYLQMNSLNPEDTAVFYCNARYKLTFNLYNYWGQGTQVTVSS	low polyreactivity
QVQLVESGGGLGQAGGSLRLSCAASGRTFRYYAKGWYRQAPGKERELVAAINRGGSTSYADSVKGRFTISRDNAKNTVYLQMNSLKPEDTAVYYCNVDKYRLVGFHSPYDYWGQGTQVTVSS	high polyreactivity
QVQLVESGGGLGQAGGSLRLSCAASGSIFSSYAMGWYRQAPGKERELVAAISQSGGDTYYADSVKGRFTISRDNAKNTVYLQMNSLKPEDTAVYYSAASVWYYPMDYWGQGTQVTVSS	low polyreactivity
QVQLVESGGGLGQAGGSLRLSCAASGSTFGRYVMGWYRQAPGKERELVAAISKNSGSTYYAYSVKGRFTISRDNAKNTVYLQMNSLKPEDTAVYYCAADWRSKGYDSLGQGTQVTVSS	high polyreactivity
QVQLVESGGGLIQAGGSLRLSCAASGSILSDYVMAWYRQAPGKERELVAAITNDDSTNYADSVKGRFTISRDNAKNTVYLQMNSLKPEETAVYYCAAEWLVVYYISTGESYKVEFDYCGQGTQVTVSS	low polyreactivity
QVQLVESGGGLLKAGGSLRLTCAASGRIFSSYDMGWYRQAPGKERELVAAISNSGGNTYYADSVKGRFTISRDNAKNTVYLQMNSLKPEDTAVYYCAAVAFWAIFDFYWYYPYEYDYWGQGTQVTVSS	high polyreactivity
QVQLVESGGGLLKAGRSLRLSCAASGRIFGYYAMGWYRQAPGKERELVAAISTGGGRTYYADSVKGRFTISRDNAKNTVYLQMNSLKPEDTAVYYCAARLKWGWPTYDYWGQGTQVTVSS	high polyreactivity
QVQLVESGGGLLQAAGSLRLSCAASGIIFHIYAMGWYRQAPGKERELVAAISTGSSTYYADSVKGRFTISRDNAKNTVYLQMKSLKPEDTAVYYCNAVSRLLWVKGFDYWGQGTQVTVSS	low polyreactivity
QVQLVESGGGLLQAGGSLRISCAASVSIFYHYAMGWYRQAPGKERELVAAISWRGGSTNYADSVKGRFTISRDNAKNTVYLQMNSLKPEDSAVYYCNAVQRRREYYWGQGTQVTVSS	high polyreactivity
QVQLVESGGGLLQAGGSLRLSCAASGIFGRYAMGWYRQAPGKERELVAGISWSGVRTYYADSVKGRFTISRDNAKNTVYLQINSLKPEDTSVYYCPARPWNDGYYVGRFHMDYWGQGTQVTVSS	low polyreactivity
QVQLVESGGGLLQAGGSLRLSCAASGIIFRGYSMGWYRPAPGKERELVASITRRGGSTRYADSVKGRFTISRDNAKNTVYLQMNSLKPEDTPVYYCAAVGVGKTSTAYGYWGQGTQVNVSS	high polyreactivity
QVQLVESGGGLLQAGGSLRLSCAASGITFGRNTMGWYRQAPGKERELVAAINSGGSTTYADSVKGRFTISRDNAKNTVYLQMISLKPEDSAVYYCNKSSTGWTATYDYWGQGTQVTVSS	low polyreactivity
QVQLVESGGGLLQAGGSLRLSCAASGITFRFYAMGGYRQAPGKEREFVAAISCRGGRTYYADSVKGRFTISRDNAKNTVYIQMNSLKPEDTAVYYCAADFYYRTVATVTSVARYDYWGQGTQVTVSS	high polyreactivity
QVQLVESGGGLLQAGGSLRLSCAASGNIFGWYAMGWYRQAPGKERELVAAISSGGRTNYADSVKGRFTISRDNAKNTVYLQMNSLKPEDTAVYYCATPLQQLYGYWGQGTQVSVSS	low polyreactivity
QVQLVESGGGLLQAGGSLRLSCAASGPTFAYYAMGWYRQATGKERELVAAIDSSGGSTYYADSVKGRFTISRDNSNNSVYLQMNSLKPEDTAVNYCAASYPYDRYDQGGFGYWGQGTQVTVSS	low polyreactivity
QVQLVESGGGLLQAGGSLRLSCAASGRIFGGYDMGWYRQAPGKERELVASISYSGGTTYYADSVKGRFTISRDNAKNTVYLQMNSLKPEDSAVYYCAALSQHNDSGYDYWGQGTQVTVSS	high polyreactivity
QVQLVESGGGLLQAGGSLRLSCAASGRIFSFNTMGWYRQAPGKERELVAAISRGGSTYYADSVKGRFTNSRDNAKNTVYLQMNSMKPEDTAVYYCNALLPPGSRKYNYWGQGSQVTVSS	high polyreactivity
QVQLVESGGGLLQAGGSLRLSCAASGRTFETNAMGWNRQAPGKQRELVASINWSGGSTYYADSVKGRFTISRDNAKNSVYLQMNSLKPEDTAVYYCAADHSYWDWWSYYYWGQGTQVTVSW	low polyreactivity
QVQLVESGGGLLQAGGSLRLSCAASGRTFNYYAMGWYRQAPWKESELVADIRGRGGSTYYADSVKGRFTISRDNAKITVYLQMNSLKPEDKAVYYCARRSPYPYSIYYYWGQGTQVTVSS	high polyreactivity
QVQLVESGGGLLQAGGSLRLSCAASGRTFRYYAMGWYRQAPGKERELVAAISSGGSSTYYADSVKGRFTISRDNAKNTVYLQMNSLKPEDTAVYYCAAGYYPFNYWGQGTQVTVSS	high polyreactivity
QVQLVESGGGLLQAGGSLRLSCAASGRTFRYYTMGWYRQAPGKEREFVAAISSTGRTYYGDSVKGRFTISRDNAKNTVYLQMNSLKPEDTAVYYCAATFIQVVVNVQLYDYDYWGQGTQVTVSS	low polyreactivity

Sequence	polyreactivity (PSR sort gate)
QVQLVESGGGLLQAGGSLRLSCAASGRTFSVNAMGWYRQAPGKERELVATITWSGSSTSYADSVKGRFTISRDNAKNTVDLQMNSLKPEDTAVYYCAADLWTLIYLTDTYGHWGQATQVTVSS	low polyreactivity
QVQLVESGGGLLQAGGSLRLSCAASGRTSDYYAMGWYRQAPGKERELVAAISRSGGRTYYADSVKGRFTISRDNAKNSVYFQMNSLQPEDTAVYYCNAGGTPYVLDEYWGQGTQVTVSS	high polyreactivity
QVQLVESGGGLLQAGGSLRLSCAASGRTSGRYAMGWYRQAPGKERELVAAISSGGRTSYADSVKGRFTISRDNAQNTVDLQMISLKPEDTAVYYCAAVFVLARAYNYWGQGTLVTVSS	high polyreactivity
QVQLVESGGGLLQAGGSLRLSCAASGSIFPDYAKGSYRQAPGKERELVAAITGIDGSTYADSVKGRFTISRVHAKNSVYLQINRLKPEDTAVYYCNTESIRYVPWFRFDYWGQGTQVTVSS	low polyreactivity
QVQLVESGGGLLQAGGSLRLSCAASGSIFRRYAMGWYRQATGKERELVAAISRSGSSTYADSVKGRFTISRDNAKNTVYLQMNSLKPEDTAVYYCAASYAFLYYGYDSWGHGTQVTVSS	low polyreactivity
QVQLVESGGGLLQAGGSLRLSCAASGSIFSGYAMGWYRQAPGKERELVAAISGSGGSTFYADSVKGRFTISRDNAKNTVYLQMNSLKPEDTAVYYCAARRIAPYGRYDYWGQGTQVTVSS	low polyreactivity
QVQLVESGGGLLQAGGSLRLSCAASGSTFDIYAMGWYRQAPGKERELVAVISGGDGSTYYADSVKGRFTISRENAKNTVYLQMNSLKPEDTAVYYCAADDISPGYWDGEYDCWGQGTQVTVSS	low polyreactivity
QVQLVESGGGLLQAGGSLRLSCAASGSTFDYYVMGWYRQAPGKERELVAAISHNAGSTYYADSVKGRFTISRDNAKNTVYLQMNSLKPEDTAVYYCAAPDYRNGVRYPLDYWGQGTQVTVSS	low polyreactivity
QVQLVESGGGLLQAGGSLRLSCAASGSTFSSYAMGWYRPAPGKERELVAAITSSGGSTYYADSVKGRFTISRDNAKNTVYLKLNSLKPEDTAVYYCAAADVIFWLYYYWGQGTQVTVSS	low polyreactivity
QVQLVESGGGLLQAGGSLRLSCAASGSTFYPYAMRWYRQAPGKERELVAAISSGGSTSYADSVKGRFTISRDNAKNTVYLQMNCLKPEDTAVYYCNGSSPGAVPVYDYDYWGQGTQVTVSS	low polyreactivity
QVQLVESGGGLLQAGGSLRLSCAASGTIFAYYAMGWYRPAPEKERELVARITYSTDRTYYADSVKGRFTISRDNAKNTVYLQMNRLKPEDTAVYYCAVETWWGFKRYKFDYWGLGTQVTVSS	low polyreactivity
QVQLVESGGGLLQAGGSLRLSCASSGSTFGGNAMGRYRQAPGKERELVAAITVGGDSTYYADSVKGRFTISRDNAKNTVYLQMNSLKPEDTAVYYCNASNVYFWFVTLEFDYWGQGTQVTVSS	low polyreactivity
QVQLVESGGGLLQAGGSLRLSSAASGFIFNWYAMGGYRQAPGKERELVAAITSGGSTNYADSVKGRFTISRDNAKNTVYLQMNSLKPEDTAVYYCAARHWRRYGYCGQGTQVTVSS	high polyreactivity
QVQLVESGGGLLQAGGSLRLSSAASGRTFSTNAMGWYRQAPGKERELVAAITSRGGSTYYADSVKGRFTISRDNAKNTVYLQMNSLKPEDTAVYYCAAGWLPKYGYWGQGTQVTVSS	low polyreactivity
QVQLVESGGGLLQAGGSLRLSSAASGVYAMGWYRQAPGKERELVAAISRRGGSTYYADSVKGRFTISRDNAKNTVYLQMKSLNPADTAVYYCAADYTSRTRGNRDRLDYWGQGTQVTVSS	high polyreactivity
QVQLVESGGGLLQAGRSLRLSCAASGSIIWLYAMGWYRQAPGKERELVAAISWTGTSTNYADSVKGRFTISRDYAKNTVYLQMNSLKPEDTAVYYCAKRWYNQKLFGYEDEYDYWGQGTQVTVSS	low polyreactivity
QVQLVESGGGLVEAGGSHRLSCAASGSTFNYYAMGWYRQAPGKERELVASISGGGSTSYADSVKGRFTISRDHAKNTVYLQMNSLNPEHTAVYYCAATPIGQHFPLDYWGPGTQVTVSS	low polyreactivity
QVQLVESGGGLVEAGGSLRISCAASGSIFGYYAMGWYRQAPGKERELVAAISYSGGSTNYADSVKGRFTISRDTAKNSVSLQMNSLKPEDTAGYAFATSRSRRYVEFYRYDYWGQGPQVTVSS	high polyreactivity
QVQLVESGGGLVEAGGSLRLSCAASGLTIRWYAMGWYRQAPGKESEVVATISSGGSTNYADSVKGRFTISRDNAKNTVYFQMNSLTPEDTAVYYCNAYFRGYYHATIGMDYWGQGTQVTVSS	high polyreactivity
QVQLVESGGGLVEAGGSLRLSCAASGSTFVIYTIGCYRQAPGTQRELVAAISSSGGITYYSDSVKGRFTISRDNAKNTVYLQMNSLKPEDTAVYYCAADSRSAYSPYYYWGQGTQVTVSS	high polyreactivity
QVQLVESGGGLVEAGGSLRLSSAASGINFKMYAMVWSRQAPGKERELVADITYVGSTKYADSVKGRFTISRDNAKNTFYLQMNSLKPEDTAVYYFNAAQYYWYEYDYWGQGTQVTVSS	low polyreactivity

Reference: the nanobody polyreactivity screen of Harvey et al. (2022)
